The text below walks through data of PMC9954413 (Cancers, 2023).

B1: UbcH13 (UBE2N) (enzyme, human)
chain: MAGLPRRIIKETQRLLAEPVPGIKAEPDESNARYFHVVIAGPQDSPFEGGTFKLELFLPEEYPMAAPKVRFMTKIYHPNVDKLGRICLDILKDKWSPALQIRTVLLSIQALLSAPNPDDPLANDVAEQWKTNEAQAIETARAWTRLYAMNNI
notes: human UbcH13 (UBE2N), E2 ubiquitin-conjugating enzyme; also called UbcH13 E2 enzyme
B2: Arkadia (RNF111) LONG, residues 876-994 (Ark LONG, 119 aa) (domain or fragment, human, UniProt Q6ZNA4 876-994, looked up)
chain: FRGNFEELIHLEERLGNVNRGASQGTIERCTYPHKYKKVTTDWFSQRKLHCKQDGEEGTEEDTEEKCTICLSILEEGEDVRRLPCMHLFHQVCVDQWLITNKKCPICRVDIEAQLPSES
notes: human Arkadia (RNF111), residues 876-994, 119 aa; RING domain with the non-RING elements; also called wt Ark LONG; source: expressed and purified as described elsewhere [31]
B3: Arkadia LONG R983A (domain or fragment)
chain: B2 chain with R108A
notes: human Arkadia (RNF111), residues 876-994, with R983A; also called Ark LONG R983A; source: site-directed mutagenesis; expressed and purified as the wild type
B4: Arkadia LONG R983K (domain or fragment)
chain: B2 chain with R108K
notes: human Arkadia (RNF111), residues 876-994, with R983K; also called Ark LONG R983K; source: site-directed mutagenesis; expressed and purified as the wild type
B5: Arkadia (RNF111) RING, residues 927-994 (Ark RING, 68 aa) (domain or fragment, human, UniProt Q6ZNA4 927-994, looked up)
chain: KQDGEEGTEEDTEEKCTICLSILEEGEDVRRLPCMHLFHQVCVDQWLITNKKCPICRVDIEAQLPSES
notes: human Arkadia (RNF111), residues 927-994, 68 aa; also called wt Ark RING; source: expressed and purified as described elsewhere [31]

What all share (experiment): ITC; 1-3 mM E2 in the syringe injected (2 uL, 15-19 injections) into 100-300 uM Arkadia polypeptide in the cell; 25 °C; 50 mM KH2PO4, 50 mM K2HPO4 pH 7; single-site model
What all share (conditions): both partners purified
(In general: ITC needs no label: the signal is the heat of the interaction.)

Test [1] deals with B2.
Test [2] concerns the target B5.
In another test the target is T1, UbcH5B (UBE2D2) (human, UniProt P62837 1-147).
T1 construct: His6-tag cleaved with thrombin; also called wt UbcH5B; wt E2

In the next test the target is T2, UbcH7 (UBE2L3) (human, UniProt P68036 1-154).
T2 construct: human UbcH7 (UBE2L3), E2 ubiquitin-conjugating enzyme; also called wt UbcH7; source: expressed and purified as described elsewhere [21,32]

For the test “UbcH13 (UBE2N)”, the target named is B1.
For a further test, the target named is T3, UbcH7 K96S (human, UniProt P68036 1-154, K96S).
T3 construct: human UbcH7 (UBE2L3) with K96S (KPA motif changed to SPA); also called mutant UbcH7; source: site-directed mutagenesis; expressed and purified as the wild type

Substitutions are numbered along the chain they refer to. Names and notes keep the numbering of the source.

B1: in test [1], the dH is -2.3 kcal/mol and the stoichiometry N (as a rule, a count of units in the complex or per binding partner) was 0.9. Also, in test [2], the dH was 3.4 kcal/mol and the “stoichiometry N” value stood at 1.1.

Turning to B2, the dissociation constant (Kd) – broadly, a measure of binding affinity in units of concentration – with UbcH5B (UBE2D2) is 2.7 ± 0.5 µM; with UbcH7 (UBE2L3), 4.3 ± 0.5 µM; in the test with UbcH13 (UBE2N), 51.9 ± 5 µM.

As to B3, binding in the test with UbcH5B (UBE2D2) was characterised by a dissociation constant (Kd) of 8.4 ± 0.4 µM.

In the case of B4, the Kd with UbcH5B (UBE2D2) came out at 5.5 ± 0.6 µM.

As for B5, the Kd came out at 10.2 ± 0.6 µM with UbcH7 K96S, 27.3 ± 2 µM in the test with UbcH7 (UBE2L3) and 264 ± 46 µM with UbcH13 (UBE2N).
